Results: paper PMC9482650, “Quantitative fragmentomics allow affinity mapping of interactomes” (Nature Communications, 2022)

T1: PCLO, Q9Y6V0
T1 sequence (Q9Y6V0 4491-4600, limits assumed, looked up): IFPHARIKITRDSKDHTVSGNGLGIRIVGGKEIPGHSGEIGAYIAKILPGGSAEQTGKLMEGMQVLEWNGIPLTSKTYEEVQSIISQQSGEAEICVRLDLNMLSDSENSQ

T2: DLG3_3, Q92796
T2 sequence (Q92796 374-475, limits assumed, looked up): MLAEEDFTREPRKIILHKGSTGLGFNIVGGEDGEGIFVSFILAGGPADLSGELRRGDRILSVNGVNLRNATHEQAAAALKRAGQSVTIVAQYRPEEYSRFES

T3: MPDZ_12, O75970
T3 sequence (O75970 1857-1958, limits assumed, looked up): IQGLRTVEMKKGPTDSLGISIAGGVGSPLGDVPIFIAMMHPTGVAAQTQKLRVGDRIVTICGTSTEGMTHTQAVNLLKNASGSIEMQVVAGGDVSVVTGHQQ

T4: LIN7B, Q9HAP6
T4 sequence (Q9HAP6 88-185, limits assumed, looked up): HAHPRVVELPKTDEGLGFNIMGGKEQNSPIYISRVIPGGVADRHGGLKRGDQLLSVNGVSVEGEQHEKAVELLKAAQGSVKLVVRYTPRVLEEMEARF

T5: DVL3, Q92997
T5 sequence (Q92997 244-331, limits assumed, looked up): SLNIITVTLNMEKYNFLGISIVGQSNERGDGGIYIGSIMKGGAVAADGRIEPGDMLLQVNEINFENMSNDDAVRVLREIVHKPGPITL

T6: DLG3_1, Q92796
T6 sequence (Q92796 125-227, limits assumed, looked up): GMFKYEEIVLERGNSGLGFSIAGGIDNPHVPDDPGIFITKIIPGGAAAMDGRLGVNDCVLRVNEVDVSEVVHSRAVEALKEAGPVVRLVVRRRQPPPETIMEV

T7: TX1BP3, O14907
T7 sequence (O14907 10-122, limits assumed, looked up): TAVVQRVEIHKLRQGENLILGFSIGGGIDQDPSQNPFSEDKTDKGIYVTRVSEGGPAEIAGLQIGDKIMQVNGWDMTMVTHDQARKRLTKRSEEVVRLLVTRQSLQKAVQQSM

T8: PTPN13_1, Q12923
T8 sequence (Q12923 1088-1188, limits assumed, looked up): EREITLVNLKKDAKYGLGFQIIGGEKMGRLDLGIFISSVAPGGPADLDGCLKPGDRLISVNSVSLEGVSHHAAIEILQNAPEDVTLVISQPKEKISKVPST

T9: SHANK1, Q9Y566
T9 sequence (Q9Y566 658-767, limits assumed, looked up): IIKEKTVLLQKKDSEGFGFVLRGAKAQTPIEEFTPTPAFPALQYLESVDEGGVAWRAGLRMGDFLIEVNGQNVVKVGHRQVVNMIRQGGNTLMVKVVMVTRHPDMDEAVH

T10: LIN7A, O14910
T10 sequence (O14910 103-200, limits assumed, looked up): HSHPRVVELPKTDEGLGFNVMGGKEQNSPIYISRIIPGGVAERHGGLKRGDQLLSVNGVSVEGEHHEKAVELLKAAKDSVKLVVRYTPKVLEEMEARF

B1: LPAR1, Q92633 (peptide)
chain: GVHSNDHSVV
B2: KCNA6, P17658 (peptide)
chain: YAEKRMLTEV
B3: SLC17A1, Q14916 (peptide)
chain: WAKEKQHTRL
B4: CSPG4, Q6UVK1 (peptide)
chain: PALKNGQYWV

Key:
Experiment in all cases: holdup assay
Set-up in all cases: key: below the threshold = too weak to quantify, mostly under pKd 3.1 to 4
Settings in all cases: plain residues with an end cap or a label only (N-terminal biotin on a linker: ado-ado)
GOPC, Q9HD26 = biological target: GOPC, Q9HD26
MAGI2_6, Q86UL8 = biological target: MAGI2_6, Q86UL8
MAGI2_6, Q86UL8, sequence (Q86UL8 1141-1229): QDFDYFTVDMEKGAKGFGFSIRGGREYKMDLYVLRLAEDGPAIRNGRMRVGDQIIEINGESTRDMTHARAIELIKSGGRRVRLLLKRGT

Inadl_10, Q8NI35 = biological target: Inadl_10, Q8NI35
Inadl_10, Q8NI35, sequence (Q8NI35 1673-1763): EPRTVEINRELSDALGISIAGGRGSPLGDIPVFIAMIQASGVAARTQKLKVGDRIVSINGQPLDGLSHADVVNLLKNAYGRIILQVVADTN

NHERF4_4, Q86UT5 = biological target: NHERF4_4, Q86UT5
NHERF4_4, Q86UT5, sequence (Q86UT5 464-550): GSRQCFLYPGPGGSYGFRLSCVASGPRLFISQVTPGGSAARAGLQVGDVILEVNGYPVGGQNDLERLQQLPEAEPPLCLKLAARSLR

PCLO, Q9Y6V0 = biological target: T1, PCLO, Q9Y6V0
Inadl_9, Q8NI35 = biological target: Inadl_9, Q8NI35
Inadl_9, Q8NI35, sequence (Q8NI35 1530-1615): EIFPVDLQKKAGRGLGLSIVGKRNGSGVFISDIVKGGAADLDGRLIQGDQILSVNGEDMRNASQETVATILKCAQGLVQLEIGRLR

DLG3_3, Q92796 = biological target: T2, DLG3_3, Q92796
NHERF2_2, Q15599 = biological target: NHERF2_2, Q15599
NHERF2_2, Q15599, sequence (Q15599 142-238): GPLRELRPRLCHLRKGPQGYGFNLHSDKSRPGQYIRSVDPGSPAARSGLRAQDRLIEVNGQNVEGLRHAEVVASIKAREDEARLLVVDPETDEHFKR

Inadl_5, Q8NI35 = biological target: Inadl_5, Q8NI35
Inadl_5, Q8NI35, sequence (Q8NI35 673-780): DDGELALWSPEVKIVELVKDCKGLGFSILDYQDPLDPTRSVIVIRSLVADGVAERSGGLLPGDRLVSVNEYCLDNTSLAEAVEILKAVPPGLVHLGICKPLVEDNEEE

MAST2, Q6P0Q8 = biological target: MAST2, Q6P0Q8
MAST2, Q6P0Q8, sequence (Q6P0Q8 1099-1202): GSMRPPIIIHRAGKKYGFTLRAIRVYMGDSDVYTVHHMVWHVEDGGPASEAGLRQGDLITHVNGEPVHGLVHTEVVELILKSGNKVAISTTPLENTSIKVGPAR

MPDZ_12, O75970 = biological target: T3, MPDZ_12, O75970
LNX1_1, Q8TBB1 = biological target: LNX1_1, Q8TBB1
LNX1_1, Q8TBB1, sequence (Q8TBB1 261-371): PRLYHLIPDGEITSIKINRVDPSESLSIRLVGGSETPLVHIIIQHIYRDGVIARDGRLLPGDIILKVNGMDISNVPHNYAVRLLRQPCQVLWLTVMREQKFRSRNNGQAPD

LIN7B, Q9HAP6 = biological target: T4, LIN7B, Q9HAP6
DVL3, Q92997 = biological target: T5, DVL3, Q92997
DLG3_1, Q92796 = biological target: T6, DLG3_1, Q92796
GORASP2, Q9H8Y8 = biological target: GORASP2, Q9H8Y8
FRMPD2_1, Q68DX3 = biological target: FRMPD2_1, Q68DX3
FRMPD2_1, Q68DX3, sequence (Q68DX3 770-861): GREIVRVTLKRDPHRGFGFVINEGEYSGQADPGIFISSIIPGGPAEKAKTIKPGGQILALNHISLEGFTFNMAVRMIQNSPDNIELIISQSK

GRASP, Q7Z6J2 = biological target: GRASP, Q7Z6J2
GRASP, Q7Z6J2, sequence (Q7Z6J2 96-193): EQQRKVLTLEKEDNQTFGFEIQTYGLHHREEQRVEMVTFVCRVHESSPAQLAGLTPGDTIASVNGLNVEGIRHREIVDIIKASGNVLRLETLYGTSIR

DLG5_1, Q8TDM6 = biological target: DLG5_1, Q8TDM6
DLG5_1, Q8TDM6, sequence (Q8TDM6 617-713): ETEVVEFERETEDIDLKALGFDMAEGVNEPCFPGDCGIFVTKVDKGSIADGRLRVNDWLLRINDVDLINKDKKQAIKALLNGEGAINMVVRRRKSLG

GRID2IP_1, A4D2P6 = biological target: GRID2IP_1, A4D2P6
GRID2IP_1, A4D2P6, sequence (A4D2P6 1-87): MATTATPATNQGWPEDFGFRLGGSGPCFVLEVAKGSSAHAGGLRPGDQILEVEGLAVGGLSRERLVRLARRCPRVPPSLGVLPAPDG

TX1BP3, O14907 = biological target: T7, TX1BP3, O14907
PTPN13_1, Q12923 = biological target: T8, PTPN13_1, Q12923
ARHGEF12, Q9NZN5-2 = biological target: ARHGEF12, Q9NZN5-2
ARHGEF12, Q9NZN5-2, sequence (Q9NZN5 other isoform, or with tags, fused parts or gaps): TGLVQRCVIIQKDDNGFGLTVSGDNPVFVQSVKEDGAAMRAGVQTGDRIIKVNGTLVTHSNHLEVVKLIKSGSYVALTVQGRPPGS

MAGI2_2, Q86UL8 = biological target: MAGI2_2, Q86UL8
MAGI2_2, Q86UL8, sequence (Q86UL8 410-522): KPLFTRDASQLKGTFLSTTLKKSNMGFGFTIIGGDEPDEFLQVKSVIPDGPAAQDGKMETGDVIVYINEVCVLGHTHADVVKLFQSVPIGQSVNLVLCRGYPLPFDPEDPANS

SHANK1, Q9Y566 = biological target: T9, SHANK1, Q9Y566
LIN7A, O14910 = biological target: T10, LIN7A, O14910
DLG1_2, Q12959 = biological target: DLG1_2, Q12959
DLG1_2, Q12959, sequence (Q12959 314-412): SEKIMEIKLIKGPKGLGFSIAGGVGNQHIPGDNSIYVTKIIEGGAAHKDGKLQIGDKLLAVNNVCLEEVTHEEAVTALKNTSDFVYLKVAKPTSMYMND

Inadl_1, Q8NI35 = biological target: Inadl_1, Q8NI35
Inadl_1, Q8NI35, sequence (Q8NI35 113-229): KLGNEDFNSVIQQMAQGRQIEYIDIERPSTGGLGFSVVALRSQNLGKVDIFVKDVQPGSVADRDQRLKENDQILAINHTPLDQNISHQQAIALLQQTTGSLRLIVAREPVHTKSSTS

| Binder | pKd (GOPC, Q9HD26) | pKd (MAGI2_6, Q86UL8) | pKd (Inadl_10, Q8NI35) | pKd (NHERF4_4, Q86UT5) | pKd (PCLO, Q9Y6V0) | pKd (Inadl_9, Q8NI35) | pKd (DLG3_3, Q92796) | pKd (NHERF2_2, Q15599) | pKd (Inadl_5, Q8NI35) | pKd (MAST2, Q6P0Q8) | pKd (MPDZ_12, O75970) | pKd (LNX1_1, Q8TBB1) | pKd (LIN7B, Q9HAP6) | pKd (DVL3, Q92997) | pKd (DLG3_1, Q92796) | pKd (GORASP2, Q9H8Y8) | pKd (FRMPD2_1, Q68DX3) | pKd (GRASP, Q7Z6J2) | pKd (DLG5_1, Q8TDM6) | pKd (GRID2IP_1, A4D2P6) | further results |
| --- | --- | --- | --- | --- | --- | --- | --- | --- | --- | --- | --- | --- | --- | --- | --- | --- | --- | --- | --- | --- | --- |
| B1 | 3.59 | below the threshold | below the threshold | below the threshold | below the threshold | below the threshold | below the threshold | below the threshold | below the threshold | 4.12 | below the threshold | below the threshold | 3.64 | below the threshold | below the threshold | 3.61 | below the threshold | 4.47 | below the threshold | below the threshold | pKd (TX1BP3, O14907): below the threshold; pKd (PTPN13_1, Q12923): below the threshold; pKd (ARHGEF12, Q9NZN5-2): 3.54; pKd (MAGI2_2, Q86UL8): 3.69; pKd (SHANK1, Q9Y566): below the threshold; pKd (LIN7A, O14910): below the threshold; pKd (DLG1_2, Q12959): 3.99; pKd (Inadl_1, Q8NI35): below the threshold |
| B2 | 3.74 | below the threshold | below the threshold | below the threshold | below the threshold | below the threshold | below the threshold | below the threshold | below the threshold | 5.6 | 3.55 | below the threshold | 3.65 | below the threshold | below the threshold | 3.92 | below the threshold | 4.32 | below the threshold | below the threshold | pKd (TX1BP3, O14907): 4.29; pKd (PTPN13_1, Q12923): below the threshold; pKd (ARHGEF12, Q9NZN5-2): 4.91; pKd (MAGI2_2, Q86UL8): 4.33; pKd (SHANK1, Q9Y566): below the threshold; pKd (LIN7A, O14910): below the threshold; pKd (DLG1_2, Q12959): 4.23; pKd (Inadl_1, Q8NI35): below the threshold |
| B3 | 4.91 | below the threshold | below the threshold | below the threshold | below the threshold | below the threshold | below the threshold | 4.39 | below the threshold | 5.45 | below the threshold | 3.47 | below the threshold | below the threshold | below the threshold | below the threshold | below the threshold | 4.71 | below the threshold | below the threshold | pKd (TX1BP3, O14907): below the threshold; pKd (PTPN13_1, Q12923): below the threshold; pKd (ARHGEF12, Q9NZN5-2): 4.84; pKd (MAGI2_2, Q86UL8): 4.71; pKd (SHANK1, Q9Y566): 4.91; pKd (LIN7A, O14910): below the threshold; pKd (DLG1_2, Q12959): 4.27; pKd (Inadl_1, Q8NI35): below the threshold |
| B4 | below the threshold | 3.67 | below the threshold | 4.05 | below the threshold | 4.16 | below the threshold | below the threshold | 4.31 | 4.07 | 3.61 | below the threshold | below the threshold | 4.2 | below the threshold | 5.82 | 3.82 | below the threshold | below the threshold | below the threshold | pKd (TX1BP3, O14907): 4.19; pKd (PTPN13_1, Q12923): below the threshold; pKd (ARHGEF12, Q9NZN5-2): below the threshold; pKd (MAGI2_2, Q86UL8): below the threshold; pKd (SHANK1, Q9Y566): below the threshold; pKd (LIN7A, O14910): below the threshold; pKd (DLG1_2, Q12959): below the threshold; pKd (Inadl_1, Q8NI35): 4.09 |
